Assay results published in the nanobody polyreactivity screen of Harvey et al. (2022).

Experiment: yeast display, Sf9 membrane polyspecificity reagent, FACS + sequencing; frameworks hold sequencing errors
Outline: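 Synthetic nanobody libraries on Saccharomyces cerevisiae BJ5465 were galactose-induced for 36–48 hours, stained 1 hour at 4 °C with 10% biotinylated, detergent-solubilized Sf9 membrane reagent and enriched on streptavidin microbeads. FACS then separated cells into low and high (top ~1%) gates by anti-HA (expression) and streptavidin (reagent binding) fluorescence. Genes were colony-PCR amplified, MiSeq 2 × 250 sequenced and CDR-length filtered. A clone's polyreactivity label is that of its gate of origin.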

| Sequence | polyreactivity (PSR sort gate) |
| --- | --- |
| QVQLVESGGGLVQAGGSLRLSCAASGSIFGYYAMGWYRQAPGKERELVASISGSGGTTYFADSVKGRFTISRDNAKNTVYLQMNSLKPEDTAVYYCAARRSIYGYPFVTSRRGYWGQGTQVTVSS | high polyreactivity |
| QVQLVESGGGLVQAGGSLRLSCAASGSIFGYYDMGWYRQAPGKERELVAAISYRGSSTYYADSVKGRFTISRDNAKNTVYLQMNSLKPEDTAVYYCASRYYYSYPPQEDDYWGQGTQVTVSS | high polyreactivity |
| QVQLVESGGGLVQAGGSLRLSCAASGSIFGYYTMGWYRQAPGKERELVAAITSGGSTNYADSVKGRFTISRDNAKNTVYLQMNSLKPEDTAVYYCAKVSYYPWRYDYWGQGTQVTVSS | low polyreactivity |
| QVQLVESGGGLVQAGGSLRLSCAASGSIFGYYTMGWYRQAPGKERELVAGIDFITTSTYYADSVKGRFTISRDNAKNTVYLQMNSLKPEDTAVYYCNADPFTGYDYWGQGTQVTVSS | low polyreactivity |
| QVQLVESGGGLVQAGGSLRLSCAASGSIFGYYTMGWYRQAPGKERELVAGITSTGNTNYADSVKGRFTISRDNAKNTVYLQMNSLKPEDTAVYYCAADSESTWDYGWELEVGYDYWGQGTQVTVSS | low polyreactivity |
| QVQLVESGGGLVQAGGSLRLSCAASGSIFGYYTMGWYRQAPGKERELVATITSGGSTYYADSVKGRFTISRDNAKNTVYLQMNSLKPEDTAVYYCNADWYWRVYWGQGTQVTVSS | high polyreactivity |
| QVQLVESGGGLVQAGGSLRLSCAASGSIFHGYAMGWYRQAPGKERELVAAISYTGGRTYYADSVKGRFTISRDNAKNTVYLQMNSLKPEDTAVYYCADDSQLTKFYYWGQGTQVTVSS | high polyreactivity |
| QVQLVESGGGLVQAGGSLRLSCAASGSIFHGYAMGWYRRAPGKERELVAAITYSGGRTYYADSVKGRFTISRDNAKNTVYLQMNSLKPEDTAVYYCAALTRRVKKYDYWGQGTQVTVSS | high polyreactivity |
| QVQLVESGGGLVQAGGSLRLSCAASGSIFHHNAMGWYRQAPGKERELVAAISSRSGNTYYADSVKGRFTISRDNAKNTVYLQMNSLKPEDTAVYYCAAGKRLSYSTYDSWGQGTQVTVSS | high polyreactivity |
| QVQLVESGGGLVQAGGSLRLSCAASGSIFHINAMGWYRQAPGKERELVADISQRGGSTYYADSVKGRVTISRDNAKNTVYLQMNSLKPEDTAVYYCAVVHVFYAVSYFSFYTYEYWGQGTQVTVSS | low polyreactivity |
| QVQLVESGGGLVQAGGSLRLSCAASGSIFHIYMGWYRQSPGKERELVASNSYRGGTTYYADSVKGRFTISRDNAKNTVYLQMNSLKPEDTAVYDCNVDRYFYHYGRYGHMDYWGQGTQVTVSS | low polyreactivity |
| QVQLVESGGGLVQAGGSLRLSCAASGSIFHLYLGWYRQAPRKERELVAVIKSSGDSTYYADSVKGRFTISRDNAKNTVYLQMNSMKPEDTAVYYCNARRRGPRYRYCYWGQGTQVTVSS | high polyreactivity |
| QVQLVESGGGLVQAGGSLRLSCAASGSIFHMNAMGWYRQAPGKERELDASISSDGSTYYADSVKGRFTISRDNAKNTVYLQMNSLKPEVTAVYYCNADSQWALKQLSFDYWGQGTQVTVSS | low polyreactivity |
| QVQLVESGGGLVQAGGSLRLSCAASGSIFHPNAMGWYRQAPGKERELVAAITKSGGSTYYADSVKGRFTISRDNAKNTVYLQMNSLKPEDTAVYYCAKVSRATVTYDYWGQGTQVTVSS | high polyreactivity |
| QVQLVESGGGLVQAGGSLRLSCAASGSIFHRYAMGWYRQAPGKEREFVAAISGRGGSTYYADSVKGRFTISRDNAKNSVYLQMNSLKPEDTAVYYCAADSSRFYGRPRYYYWGQGTQVTVSS | high polyreactivity |
| QVQLVESGGGLVQAGGSLRLSCAASGSIFHTYVMGWYRQAPGKERELVASITRSGGSTYYADSVKGRFTISRDNAMNTVYLQMNSLKPEDTAVYYCAATYRTANHRYYYWGQGTQVTVSS | high polyreactivity |
| QVQLVESGGGLVQAGGSLRLSCAASGSIFHVYGMGWYRQAPGKEREFVADITSRGTRTYYADSVKGRFTISRDNAKNTVYLQMNSLKPEDTAVYYCNTLVGVDFWLVDYWGQVTQVTVSS | low polyreactivity |
| QVQLVESGGGLVQAGGSLRLSCAASGSIFHWYAMGWYRQAPGKERELVAAISWSGGSTYYADSVKGRFTISRDNAKNTVYLQRNSLKPEDTAVYYCNKYIRYPFKRYGYWGQGTQVTVSS | high polyreactivity |
| QVQLVESGGGLVQAGGSLRLSCAASGSIFHYNAMGWYRQAPGKERELVAAITTSGGSTYYADSVKGRFTISRDNAKNTVYLQMNSLKPEDTAVYYCAADLVWTRYFGYAPDYYIEFDYWGQGTQVTVSS | high polyreactivity |
| QVQLVESGGGLVQAGGSLRLSCAASGSIFHYYAMGWYRQAPGKERELVAAISWSGGRTYYADSVKGRFTISRDNAKNTVYLQMNSLKPEDTAVYYCAADYDGSFNTPYLLDPYDYWGQGTQVTVSS | high polyreactivity |
| QVQLVESGGGLVQAGGSLRLSCAASGSIFIAYGMGWYRQEPGKERELVAAITVSGGNTYYADSVKGRFTISRDNAKNTVYLQMYSLKPEDTAVYYCADVTYWQDGHRGNYWGQGTQVTVSS | low polyreactivity |
| QVQLVESGGGLVQAGGSLRLSCAASGSIFIDNAMGWYIQAPGKEREFVAAISKSGTSTYYADSVNGRFTISRDNAMNAVDLQMNSLKPEDTAVYYCAVRRPRPYSNYYYWGQGTQVTVSS | high polyreactivity |

| Sequence | polyreactivity (PSR sort gate) |
| --- | --- |
| QVQLVESGGGLVQAGGSLRLSCAASGSIFIDYAMGWYRQAPGKERELVATISNSGTSTYYADSVKGRFTISRDNAKNTVYLQMNSLKPEDTAVYYCAAEAWPYGDYYWGQGTQVTVSS | low polyreactivity |
| QVQLVESGGGLVQAGGSLRLSCAASGSIFIGNTMGWYRQAPGKERELVATIRRSGSRTYDADSVKGRFTISRDNAKNTVYLQMNSLKPEDTAVYYCAADRLRTSGYKTIYDYWGQGTQVTVSS | low polyreactivity |
| QVQLVESGGGLVQAGGSLRLSCAASGSIFIGNTMGWYRQAPGKERELVATIRRSGSRTYYADSVKGRFTISRDNAKNTVYLQLNSLKPEDTAVYYCAADRLRSSGYKTIYDYWGQGTQVTVSS | low polyreactivity |
| QVQLVESGGGLVQAGGSLRLSCAASGSIFIGYAMGWNRQAPGKERELVAGISSNGGTTYYADSVKGRFTISRDNAKNTVYLQMNSLKPEDTAVYYCATQYYARGYLYDYWGHGTQVTVSS | low polyreactivity |
| QVQLVESGGGLVQAGGSLRLSCAASGSIFILNAMGWYRQAPGKERELGAAISWSGGRTNYADSVKGRFTISRDNAKNPVYLHMNSLKPEDTAVYYCAARVTPYRGFYYWGQGTQVTVSS | high polyreactivity |
| QVQLVESGGGLVQAGGSLRLSCAASGSIFINNTMGWYRQAPGKERELVAAISITGGSTYYADSVKGRFTISRDNAKNTVYLQMNSLKPEDTAVYYCAADPLQLYDYNYWGQGTQVTVSS | low polyreactivity |
| QVQLVESGGGLVQAGGSLRLSCAASGSIFISYAMGWYRQAPGKERELVAAINSGGSTNYADSVKGRFTISRDNAKNTVYLQMNSLKPEDTAVYYCAVDGYFFQGPYYYWGQGTQVTVSS | low polyreactivity |
| QVQLVESGGGLVQAGGSLRLSCAASGSIFITYAMGWYRQAPGKERELVAAIRDSGDRTYYADSVKGRFTISRDNAKKTVYLQMNSLKPEDTAVYYCNARWQEPLKYDYWGQGTQVTVSS | low polyreactivity |
| QVQLVESGGGLVQAGGSLRLSCAASGSIFIYNAMGWYRQAPGKERELVAAINWTGGSTYYADSVKGRFTISRDNAKNTVYLQMNSMKPEDTAVYYCNALRYGSTRGYDYWGQGSQVTVSS | high polyreactivity |
| QVQLVESGGGLVQAGGSLRLSCAASGSIFIYNVMGWYRQAPGKERELVATIRGSGGSTYYADSVKGRFTISRDNAQNTVYLQMNSLKPEDTAVYYCARRDYPVQWGRAYNYWGQGTQVTVSS | high polyreactivity |
| QVQLVESGGGLVQAGGSLRLSCAASGSIFIYYAMGWYRQAPGKERELVAAISSSGDSTNYADSVKGRFTISRDNAKNTVYLQMNSLKPEDTAVYYCAADPYYFYIWYWWPSFDYWGQGTQVTVSS | low polyreactivity |
| QVQLVESGGGLVQAGGSLRLSCAASGSIFKGYAMGWYRQAPGKERELVAANTYSGGGTYYADSVKGRFTISRDNAKNTVYLQMKSLKQEDTAVYYCNADRYYPDDLSDGVGTYDYWGQGTQVSVSS | low polyreactivity |
| QVQLVESGGGLVQAGGSLRLSCAASGSIFKKNAMGWYRQEPGKERELVAAITRRGASTYYADSVKGRFTISRDNAKNNVYLQMNSLKREDTAVYYCAAPGKIGASFDNYYYWGQGTQVTVSS | high polyreactivity |
| QVQLVESGGGLVQAGGSLRLSCAASGSIFKKYAMGWYRQAPGKERELVAAIRSSGGSTYYADSVKGRFTISRDNAKNTVYLQMNSLKPEDTAVYYCAAYVPQGYKLYYWGQGTQVSVSS | high polyreactivity |
| QVQLVESGGGLVQAGGSLRLSCAASGSIFKKYAMGWYRQAPGKERELVAAISKSGGSTYYADSVKGRFTISRDNAKNTVYLQMNSLKPDDTAVYYCAAAAGGSAYWDYDYWGQGTQVTVSS | low polyreactivity |
| QVQLVESGGGLVQAGGSLRLSCAASGSIFKLYSMGWSRQAPGKERELVATIRWSGGSTYYADSVKGRFTISRDNAKNTVYLQMNSLKPEDTAVYYCAARRVRPNGYTSSPLDYWGQGTQVTVSS | high polyreactivity |
| QVQLVESGGGLVQAGGSLRLSCAASGSIFKPYAMGWYRQAPGKERELVAAISGIGGSTYYADSVKGRFTISRDNAKNTVYLQMNCLKPEDTAVYYCAADTFFKIFSEYNYWGQGTQVTVSS | high polyreactivity |
| QVQLVESGGGLVQAGGSLRLSCAASGSIFKPYAMGWYRQAPGKERELVAAISRSGSTYYADSVKGRFTISRDNAKNSVYLQMNSLKPEVTAVFYCAAETQARWRRYDYWGQGSQVTVSS | low polyreactivity |
| QVQLVESGGGLVQAGGSLRLSCAASGSIFKPYAMGWYRQAPGKERELVAVISSGGSTNYADSVKGRFTISRDNAKNTVYLQMNSLKPEDTAVYYCAAEDQYGYDYWGQGTQVTVSS | high polyreactivity |
| QVQLVESGGGLVQAGGSLRLSCAASGSIFKRNAMGWYRQAPGKERELVAAITGGGRTNYADSVKGRFTISRDNAKNTVYLQMNSLNPEDTAVYYCAADWYGVGLYYTWTRHDYWGQGTQVTVSS | low polyreactivity |
| QVQLVESGGGLVQAGGSLRLSCAASGSIFKRNAMGWYRQAPGKERELVAAITSSGGTTYYADSVKGRFTISRDNAKNTVYLQMNSLKPEDTAVYYCNAGYGVRSVRRFDYWGQGTQVTVSS | high polyreactivity |
